Patent CN114106184A

Tests used:
[1] = target: CA125抗原 (Cancer Antigen 125) (human) (UniProt Q8WXI7); assay: SPR, Biacore T100, antigen coupled to chip, nanobody as analyte, 1:1 fit
[2] = target: CA125抗原 (Cancer Antigen 125) (human) (UniProt Q8WXI7); assay: SPR, Biacore T100, antigen on chip, 1:1 fit (repeats Table 1)
[3] = target: CA125抗原 (Cancer Antigen 125) (human) (UniProt Q8WXI7); assay: SPR, Biacore T100, antigen coupled to chip, bispecific as analyte, 1:1 fit
[4] = target: CA125抗原 (Cancer Antigen 125) (human) (UniProt Q8WXI7); assay: SPR, Biacore, comparator nanobody listed in Table 1

Binder | Kd [1] [nM] | Kd [2] [nM] | Kd [4] [nM] | also measured
抗CA125纳米抗体4A4 (VHH) VHH: QVQLQESGGGLVQAGTSLTLSCAASERTFSAYDMNWYRQAPGKERELVAAISWRGPITYVADSVKGRFTISRDNAKNTVYLQMNSLKPEDTAIYYCNAEPGPGYVGSYALSYWGQGTQVTVSS | 3.59 | 3.59 |  | 
抗CA125纳米抗体6C1 (VHH) VHH: QVQLQESGGGLVQAGGSLRLSCAASGSMFSINAMRWYRQAPGKQRELVAAITSGGSTNYADSVKGRFTISRDNAKNTMYLQMNSLKPEDTAVYYCNAAQTRLPNSADRYEYDYWGQGTQVTVSS | 0.198 | 0.198 |  | 
抗CA125双特异性纳米抗体 4A4-(G4S)4-6C1 (bispecific antibody) QVQLQESGGGLVQAGTSLTLSCAASERTFSAYDMNWYRQAPGKERELVAAISWRGPITYVADSVKGRFTISRDNAKNTVYLQMNSLKPEDTAIYYCNAEPGPGYVGSYALSYWGQGTQVTVSSGGGGSGGGGSGGGGSGGGGSQVQLQESGGGLVQAGGSLRLSCAASGSMFSINAMRWYRQAPGKQRELVAAITSGGSTNYADSVKGRFTISRDNAKNTMYLQMNSLKPEDTAVYYCNAAQTRLPNSADRYEYDYWGQGTQVTVSS |  |  |  | Kd [3]: 0.0768 nM
VHH-CA125-4H10 (VHH, from another filing) VHH: ESGGGLVQPGGSLRLSCAASEFTLEHYAIGWFRQAPGKEREGVGCISSSQENTYVEDSAKGRFTISRDNVKNTVYLQMNSLKPEDTAVYYCAARRFGLCVISPGYFEVWGQGT |  |  | 0.285 | 
VHH-CA125-2H7 (VHH, from another filing) VHH: ESGGGLVQAGGSLRLSCERSDAPHSPYTMGWFRQAPGKDREFVATITWSGGTTLYADSVKGRFTISRGIAKNTAYLQMNTLKPEDTAVYYCAVGLGGGAYREDHQYDYWGQGT |  |  | 0.718 | 
VHH-CA125-4C1 (VHH, from another filing) VHH: ESGGGLVQAGGSLRLSCAASGNTFNINAMGWYRQAPGKQRELVATITSGGSTNYADSVKGRFTISRDNAKNTVFLQMNSLKPEDTAVYYCNAVQTRLPNSPDRYEYDYWGQGT |  |  | 0.635 | 
